Test results as given in patent US20230235075A1 (published 2023).

T1: Human CD93 recombinant protein (Sino Biological Inc, Catalog #12589-H08H) (human, UniProt Q9NPY3 22-580, biotinylated with EZ-LINK NHS-PEG4 biotin in the Octet assays)
T1 chain: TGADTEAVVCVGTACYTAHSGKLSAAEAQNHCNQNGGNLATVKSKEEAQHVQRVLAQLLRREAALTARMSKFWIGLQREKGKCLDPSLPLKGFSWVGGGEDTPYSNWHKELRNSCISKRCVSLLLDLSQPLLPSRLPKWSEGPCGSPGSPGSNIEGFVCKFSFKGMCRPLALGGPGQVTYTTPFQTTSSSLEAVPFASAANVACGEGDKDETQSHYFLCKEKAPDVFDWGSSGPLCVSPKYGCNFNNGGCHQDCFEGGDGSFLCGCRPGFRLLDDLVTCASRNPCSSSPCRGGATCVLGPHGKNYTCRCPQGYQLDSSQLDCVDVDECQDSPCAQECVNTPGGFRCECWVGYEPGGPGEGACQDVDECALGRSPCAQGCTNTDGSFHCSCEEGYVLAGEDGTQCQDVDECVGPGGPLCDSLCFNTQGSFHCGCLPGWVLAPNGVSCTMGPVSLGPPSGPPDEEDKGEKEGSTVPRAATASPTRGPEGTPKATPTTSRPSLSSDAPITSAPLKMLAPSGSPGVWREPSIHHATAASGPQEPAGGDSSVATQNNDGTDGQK

T2: cynomolgus CD93 protein (made in-house) (cynomolgus, UniProt A0A2K5VH53 22-580, biotinylated with EZ-LINK NHS-PEG4 biotin in the Octet assays)
T2 chain: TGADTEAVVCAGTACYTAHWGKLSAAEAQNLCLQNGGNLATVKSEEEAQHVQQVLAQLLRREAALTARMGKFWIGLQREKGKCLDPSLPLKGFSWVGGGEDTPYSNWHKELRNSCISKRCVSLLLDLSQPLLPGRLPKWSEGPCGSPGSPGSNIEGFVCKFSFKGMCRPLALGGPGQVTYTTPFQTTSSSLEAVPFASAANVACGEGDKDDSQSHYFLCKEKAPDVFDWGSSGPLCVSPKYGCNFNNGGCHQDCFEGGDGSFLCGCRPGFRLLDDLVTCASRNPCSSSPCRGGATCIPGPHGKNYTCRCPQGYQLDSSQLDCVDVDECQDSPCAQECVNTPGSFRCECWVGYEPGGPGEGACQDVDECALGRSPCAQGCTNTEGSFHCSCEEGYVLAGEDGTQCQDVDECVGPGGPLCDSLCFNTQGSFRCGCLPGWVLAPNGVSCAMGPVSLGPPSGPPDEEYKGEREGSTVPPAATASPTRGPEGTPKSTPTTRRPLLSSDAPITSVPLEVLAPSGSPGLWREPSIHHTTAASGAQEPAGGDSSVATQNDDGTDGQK


Legend:
[1] = molecular target: T1, Human CD93 recombinant protein (Sino …); assay: ELISA
[2] = molecular target: T1, Human CD93 recombinant protein (Sino …); assay: BLI
[3] = molecular target: T2, cynomolgus CD93 protein (made in-house); assay: BLI
[4] = molecular target: T1, Human CD93 recombinant protein (Sino …); assay: Octet
[5] = molecular target: T1, Human CD93 recombinant protein (Sino …); assay: ELISA
[6] = molecular target: T1, Human CD93 recombinant protein (Sino …); assay: ELISA; unit printed as pmM
[7] = molecular target: T1, Human CD93 recombinant protein (Sino …); assay: ELISA
[8] = molecular target: T1, Human CD93 recombinant protein (Sino …); assay: Octet BLI
[9] = molecular target: T1, Human CD93 recombinant protein (Sino …); assay: BLI (Octet)

| EC50 [1] [nM] | Kd [4] [nM] | EC50 [5] [nM] | Binder | other results |
| --- | --- | --- | --- | --- |
| 0.0167 |  |  | recombinant parental 17B10-hFc (antibody, V domains shown) VH: QVQLQQSGPELVKPGASVKISCKASGYAFSSYWLNWVKQRPGKGLEWFGRIYPGDGDTDYNGKFKGKATLTADKSSSTAYMQLRSLTSEDSAVYFCVRGDGYWAMDYWGQGTSVTVSS VL: DIVMTQAAFSNPVTLGTSASISCRFSKSLLHSNGITYLYWYLQKPGQSPQLLIYQMSNLASGVPDRFSSSGSGTDFTLRISRVEAEDVGVYYCAQNLELPWTFGGGTKLEIK |  |
| 0.153 |  |  | 17B10 (hybridoma) (antibody, V domains shown) VH: QVQLQQSGPELVKPGASVKISCKASGYAFSSYWLNWVKQRPGKGLEWFGRIYPGDGDTDYNGKFKGKATLTADKSSSTAYMQLRSLTSEDSAVYFCVRGDGYWAMDYWGQGTSVTVSS VL: DIVMTQAAFSNPVTLGTSASISCRFSKSLLHSNGITYLYWYLQKPGQSPQLLIYQMSNLASGVPDRFSSSGSGTDFTLRISRVEAEDVGVYYCAQNLELPWTFGGGTKLEIK |  |
|  | 0.334 | 0.112 | 16E4 (hybridoma) (antibody, V domains shown) VH: QVQLQQPGAELVKPGASVKLSCKASGYTFTSYWMHWVKQRPGQGLEWIGEIDPSASYTYYNQKFKGKATLTVDKSSSTAYMQLSSLTSEDSAVYYCARSVYYGNKYFDVWGAGTTVTVSS VL: not shown | Kd [2]: 0.447 nM; Kd [3]: 0.446 nM; EC50 [6]: 0.112 nM |
| 0.041 | 0.135 | 0.041 | 16E4-hIgG1 (antibody, V domains shown) VH: QVQLQQPGAELVKPGASVKLSCKASGYTFTSYWMHWVKQRPGQGLEWIGEIDPSASYTYYNQKFKGKATLTVDKSSSTAYMQLSSLTSEDSAVYYCARSVYYGNKYFDVWGAGTTVTVSS VL: not shown | EC50 [7]: 0.022 nM; Kd [8]: 0.135 nM |
|  |  |  | 10B1 (antibody, V domains shown) VH: QVQLKQSGPGLVQPSQSLSITCTVSDFSLSSFGVNWVRQPPGKGLEWLGVIWSGGSTDYNVAFISRLSISKDNSKSQVFFKMNNLQADDTAIYYCARNWRYDGYFYAMDYWGQGTSVTVSS VL: DIVMTQSQKFMSTSTGDRVSVTCKASQNVGTNVAWYQQKPGQSPKALIYSASYRFIGVPDRFTGSGSGTDFTLTITNVQSEDLAEYFCQQYNRNPITFGSGTKLEIK | Kd [9]: 0.904 nM |
|  | 0.493 | 0.0667 | 7F3 (hybridoma) (antibody, V domains shown) VH: QVQLQQSGADLVRPGASVKLSCKASGYTFTDYEMHWVKQTPVYGLEWIGGIDPETGDTAYNQNFKGKATLTADKSSSAAYMELRSLTSEDSAVYYCTNYGNLYYYAMDYWGQGTSVTVSS VL: ENVLTQSPAIMSASPGEKVTMTCRASSSVSSSYLHWYQQKSGASPKLWIYSTSNLAFGVPARFSGSGSGTSYSLTISSVEAEDAATYYCQQYSGYPLTFGSGTKLEIK | EC50 [7]: 0.0667 nM; Kd [9]: 1.26 nM |
|  | 0.588 | 0.041 | 7F3-hIgG1 (antibody, V domains shown) VH: QVQLQQSGADLVRPGASVKLSCKASGYTFTDYEMHWVKQTPVYGLEWIGGIDPETGDTAYNQNFKGKATLTADKSSSAAYMELRSLTSEDSAVYYCTNYGNLYYYAMDYWGQGTSVTVSS VL: ENVLTQSPAIMSASPGEKVTMTCRASSSVSSSYLHWYQQKSGASPKLWIYSTSNLAFGVPARFSGSGSGTSYSLTISSVEAEDAATYYCQQYSGYPLTFGSGTKLEIK | Kd [8]: 0.588 nM |
| 0.213 |  |  | Humanized 17B10 (VH3VL3, i.e., H3L3) (antibody, V domains shown) VH: QVQLVQSGPEVKKPGESLKISCKASGYAFSSYWLNWVRQMPGKGLEWMGRIYPGDGDTDYNGKFKGQVTISADKSSGTAYLQLSSLKASDTAVYFCVRGDGYWAMDYWGQGTLVTVSS VL: DIVMTQSPDSLAVSLGERATINCRFSKSLLHSNGITYLYWYQQKPGQPPKLLIYQMSNLASGVPDRFSGSGSGTDFTLTISSLQAEDVAVYYCAQNLELPWTFGGGTKLEIK |  |
